Laboratory results: publication PMC4288329, “Characterization of the inositol monophosphatase gene family in Arabidopsis” (Frontiers in Plant Science, 2015)

B1: IMPL1 (AtIMPL1) (Arabidopsis thaliana) (protein)
chain: TTGTISPAHLLEVVELAAKTGAEVVMEAVNKPRNITYKGLSDLVTDTDKASEAAILEVVKKNFSDHLILGEEGGIIGDSSSDYLWCIDPLDGTTNFAHGYPSFAVSVGVLYRGNPAAASVVEFVGGPMCWNTRTFSATAGGGALCNGQKIHVSKTDAVERALLITGFGYEHDDAWSTNMELFKEFTDVSRGVRRLGAAAVDMCHVALGIAESYWEYRLKPWDMAAGVLIVEEAGGAVTRMDGGKFSVFDRSVLVSNGVLHPKLLERIAPATENLKSKGIDFSLWFKPEDYHTEL
notes: plasmid pAtIMPL1H
B2: IMPL2 (AtIMPL2) (Arabidopsis thaliana) (protein)
chain: LSDTELDRFAAVGNALADASGEVIRKYFRKKFDIVDKDDMSPVTIADQMAEEAMVSIIFQNLPSHAIYGEEKGWRCKEESADYVWVLDPIDGTKSFITGKPVFGTLIALLYKGKPILGLIDQPILKERWIGMNGRRTKLNGEDISTRSCPKLSQAYLYTTSPHLFSEEAEKAYSRVRDKVKVPLYGCDCYAYALLASGFVDLVIESGLKPYDFLALVPVIEGAGGTITDWTGKRFLWEASSSAVATSFNVVAAGDSDIHQQALESLEWH
notes: plasmid pAtIMPL2H

Experiments:
Assay in all cases: malachite green phosphate release assay, Michaelis-Menten fit
Type in all cases: biochemical, Arabidopsis thaliana
[1] = substrate: O=P(O)(O)O[C@H]1O[C@H](CO)[C@H](O)[C@H](O)[C@H]1O; settings: 50 mM Tris pH 9, 3 mM MgCl2, 22°C in table note (25°C in methods), substrate 0-1 mM, value approximated
Text: (§1) malachite green phosphate release assay, Michaelis-Menten fit on IMPL1 (AtIMPL1)

[2] = substrate: O=P(O)(O)O[C@@H]1[C@H](O)[C@H](O)[C@@H](O)[C@H](O)[C@H]1O; settings: 50 mM Tris pH 9, 3 mM MgCl2, 22°C in table note (25°C in methods), substrate 0-1 mM, substrate inhibition above 1 mM
Text: as §1

[3] = substrate: N[C@H](COP(=O)(O)O)Cc1c[nH]cn1; settings: 50 mM Tris-Cl pH 7.5, 2 mM MgCl2, 22°C in table note (25°C in methods), substrate 0-1 mM
Text: malachite green phosphate release assay, Michaelis-Menten fit on IMPL2 (AtIMPL2)

Row | Protein | Km [1] [µM] | kcat [1] [s⁻¹] | kcat/Km [1] [M⁻¹ s⁻¹] | Km [2] [µM] | kcat [2] [s⁻¹] | kcat/Km [2] [M⁻¹ s⁻¹] | Km [3] [µM] | kcat [3] [s⁻¹] | kcat/Km [3] [M⁻¹ s⁻¹]
1 | B1 | 450 ± 60 | 2.4 ± 1.3 | 5300 ± 500 | 180 ± 3 | 0.6 ± 0.1 | 3300 ± 100 |  |  | 
2 | B2 |  |  |  |  |  |  | 180 ± 5 | 1.3 ± 0.2 | 7900 ± 200
